Measured values: US20210115146A1 (WUXI BIOLOGICS IRELAND, published 2021)
Where “and” joins values, the source holds several entries; their conditions need not be identical. Equal entries are not always repeated.

How the values were obtained:
[1] = target: T1, mouse EGFR (cell surface) (mouse, UniProt Q01279 25-1210); experiment: FACS on cells expressing mouse EGFR
T1 construct: whole, on cells; also called W562-CHO-K1.mProl.F3 cells
Protocol: (§1) The binding of antibodies to cell surface EGFR was assessed by FACS with EGFR transfected cells and A431 cell line, which over expresses human EGFR. 1×10⁵ cells/well were plated in a 96-well plate and centrifuged at 210 g for 5 minutes at 4° C. After removing the supernatant, the cell pellets were re-suspended with serial dilutions of testing purified antibodies in 1% BSA-PBS and incubated for 1 hour at 4° C., followed by incubation with FITC conjugated goat anti-human IgG (Jackson ImmunoResearch) at 4° C. for 1 hour. Two times of washing with 200 μl/well 1% BSA-PBS were applied between each step. Finally, the cells were resuspended in 100 μl 1% BSA-PBS for flow cytometry analysis (Intellicyt).

[2] = target: T2, human EGFR (cell surface) (human, UniProt P00533 25-1210); experiment: FACS binding to A431 cells (printed 'A432' in paragraph 253) after 0, 1, 4, 7 and 14 days in human serum at 37 C; lower panel
T2 construct: whole, on cells; also called W562-CHO-K1.hPro1.E9 cells; A431 cells
Protocol: Freshly collected human blood was incubated in polystyrene tubes without anticoagulant for 30 minutes at room temperature. The Serum was collected after centrifugation the blood at 4000 rpm for 10 minutes. Repeat the centrifugation until the serum was clarifying. Gently mix antibodies with serum and ensure the serum content >95%. The mix aliquots were incubated at 37° C. for 0 day, 1 day, 4 days, 7 days and 14 days, respectively. At the indicated time point the samples were quickly-frozen in liquid nitrogen and stored at −80° C. until analysis. The cell bindings of the serial dilutions of the antibody samples to A432 cells were analyzed by FACS. Four-parameter non-linear regression analysis was used to obtain EC₅₀ values for cell binding using GraphPad Prism 5 software (GraphPad Software, La Jolla, Calif.).

[3] = target: T2, human EGFR (cell surface); experiment: FACS on cells carrying human EGFR
Protocol: as §1

[4] = target: T3, human EGFR ECD protein (W562-hPro1.ECD.his) (human, UniProt P00533 25-645); experiment: SPR (ProteOn XPR36), antibody captured by anti-human IgG Fc, EGFR ECD.his as analyte
T3 construct: extracellular domain; Made in HEK293 cells
Protocol: Each antibody was captured on an anti-human IgG Fc antibody immobilized GLM sensor chip (Bio-Rad). W562-hPro1.ECD.his at different concentrations was injected over the sensor chip at a flow rate of 100 uL/min for an association phase of 240 s, followed by 1800 s dissociation. The chip was regenerated by 10 mM glycine (pH 1.5) after each binding cycle. The sensorgrams of blank surface and buffer channel were subtracted from the test sensorgrams. The experimental data was fitted by 1:1 binding model using Langmiur analysis. Molecular weight of 85 kDa was used to calculate the molar concentration of analyte.

[5] = target: T2, human EGFR (cell surface); experiment: FACS competition with EGF-biotin (50 ng/ml) on A431 cells
Protocol: EGFR-expressing A431 cells were routinely maintained in DMEM containing 10% FBS, 10 mM HEPES and L-glutamine. 10⁵ cells per well were added to each well of a 96-well plate and centrifuged at 210 g for 5 minutes at 4° C. before the supernatant was removed. Serial dilutions of test antibodies were added to the pelleted cells and incubated for 1 hour at 4° C. […] MFI of the cells was measured by flow cytometry and analyzed by FlowJo.

[6] = target: T4, human EGFRvIII (cell surface) (human, UniProt P00533 25-1210); experiment: FACS affinity on transfected cells, quantitative beads
T4 construct: whole, on cells; also called hEGFRIII; EGFR variant III
Protocol: (§2) Human, cyno, mouse EGFR and human EGFRvIII transfected cells were transferred in to 96-well U-bottom plates (BD) at a density of 5×10⁴ cells/well, respectively. Testing antibodies were 1:3.16-fold serially diluted in 1% BSA-PBS and incubated with the cells at 4° C. for 1 hr. The secondary antibody, Alexa647 conjugated goat anti-human IgG Fc (Jackson Immunoresearch Lab), was added to resuspended cells and incubated at 4° C. in the dark for 1 hr. The cells were then washed once and resuspended in PBS with 1% BSA, and analyzed by flow cytometery (BD). Fluorescence intensity was converted to bound molecules/cell based on the quantitative beads (Quantum™ MESF Kits, Bangs Laboratories). KD was calculated using Graphpad Prism5.

[7] = target: T2, human EGFR (cell surface); experiment: as above
Protocol: as §2

[8] = target: T1, mouse EGFR (cell surface); experiment: as above
Protocol: as §2

[9] = target: T5, Macaca fascicularis EGFR (cell surface) (Macaca fascicularis, UniProt A0A2K5WK39 25-1210); experiment: as above
T5 construct: whole, on cells; also called monkey EGFR; cyno EGFR
Protocol: as §2

[10] = target: T2, human EGFR (cell surface); experiment: cell-based or functional assay
[11] = target: T5, Macaca fascicularis EGFR (cell surface); experiment: FACS on cells expressing monkey EGFR
Protocol: as §1

- EC50 [1]: 1.06 nM
- EC50 (read off the curve) [2]: ~0.8 nM
- EC50 [3]: 0.99 nM
- Kd [4]: 0.162 nM
- koff [4]: 0.000105 s⁻¹
- kon [4]: 646000 M⁻¹ s⁻¹
- IC50 [5]: 2.58 nM
- Bmax [6]: 590 pM
- Kd [6]: 0.32 nM
- Bmax [7]: 920 pM
- Kd [7]: 1.4 nM
- Bmax [8]: 890 pM
- Kd [8]: 0.54 nM
- Bmax [9]: 230 pM
- Kd [9]: 0.23 nM
- IC50 of inhibition of EGFR phosphorylation (pEGFR sandwich ELISA, A431 cells stimulated with EGF) [10]: 10.4 nM and 22.6 nM
- EC50 [11]: 0.58 nM
B1: W5626-2C10-z5 (humanized VHH of W5626-2C10 further comprising a human Fc of IgG1 isotype) (Fc fusion)
chain: AVQLVESGGGLVQPGGSLTLSCAASGRTFSSYAMGWFRQAPGKEREFVAADRWSGGNTRYADSVKGRFTISRDNAKNTLYLQMNSLRAEDTAVYYCAATYLSSDYEWGVPPKAYDYDYWGQGTLVTVSS
notes: Bivalent humanized VHH linked with human IgG1 Fc region; not shown: human IgG1 Fc region from a modified pcDNA3.3 vector
- EC50 of EGFR internalization (Fab-ZAP, viability of A431 cells) [10]: 0.21 nM
